Measured values published in paper PMC4051164, “Multiple transcription factors directly regulate Hox gene lin-39 expression in ventral hypodermal cells of the C. elegans embryo and larva, including the hypodermal fate regulators LIN-26 and ELT-6”.

Legend:
ZTF-17 [1] = target: T1, ZTF-17 (Caenorhabditis elegans, UniProt P45972 1-705); test: EMSA; 50 mM KCl, 20 mM HEPES pH 7.9, 0.2 mM EDTA, 0.5 mM DTT, 3 mM MgCl2, 1 ug poly(dI-dC), 0.5 ug/ul BSA, 0-800 ng protein, 20 ul, 20 min on ice (4 C); conditions: protein: recombinant; tags: N-terminal 6His (pQE-80L); label: 32P; blunt
T1 sequence: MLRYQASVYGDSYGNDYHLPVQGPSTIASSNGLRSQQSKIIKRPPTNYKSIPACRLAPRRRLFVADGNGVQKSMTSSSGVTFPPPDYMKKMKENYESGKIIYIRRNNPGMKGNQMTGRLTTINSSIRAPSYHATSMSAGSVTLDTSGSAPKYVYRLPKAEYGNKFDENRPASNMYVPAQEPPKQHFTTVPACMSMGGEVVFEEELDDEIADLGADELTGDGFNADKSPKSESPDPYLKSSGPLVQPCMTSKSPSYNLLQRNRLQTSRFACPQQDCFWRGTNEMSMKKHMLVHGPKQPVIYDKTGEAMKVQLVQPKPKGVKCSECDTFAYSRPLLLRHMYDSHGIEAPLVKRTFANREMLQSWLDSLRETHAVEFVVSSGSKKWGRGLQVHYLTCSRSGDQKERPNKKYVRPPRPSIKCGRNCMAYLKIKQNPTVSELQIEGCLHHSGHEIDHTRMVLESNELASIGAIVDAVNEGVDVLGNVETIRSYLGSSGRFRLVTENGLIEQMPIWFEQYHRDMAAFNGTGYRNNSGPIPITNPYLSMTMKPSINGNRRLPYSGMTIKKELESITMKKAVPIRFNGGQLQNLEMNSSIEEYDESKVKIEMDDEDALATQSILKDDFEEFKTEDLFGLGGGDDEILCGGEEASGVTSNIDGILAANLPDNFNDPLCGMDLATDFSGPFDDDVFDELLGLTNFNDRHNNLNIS

ALR-1 = ALR-1 (Caenorhabditis elegans, UniProt Q21836 1-362); test: EMSA; self competes; 50 mM KCl, 20 mM HEPES pH 7.9, 0.2 mM EDTA, 0.5 mM DTT, 3 mM MgCl2, 1 ug poly(dI-dC), 0.5 ug/ul BSA, 0-800 ng protein, 20 ul, 20 min on ice (4 C); conditions: protein: recombinant; tags: N-terminal 6His (pQE-80L); label: 32P; blunt
Chain of ALR-1 (Q21836 whole entry): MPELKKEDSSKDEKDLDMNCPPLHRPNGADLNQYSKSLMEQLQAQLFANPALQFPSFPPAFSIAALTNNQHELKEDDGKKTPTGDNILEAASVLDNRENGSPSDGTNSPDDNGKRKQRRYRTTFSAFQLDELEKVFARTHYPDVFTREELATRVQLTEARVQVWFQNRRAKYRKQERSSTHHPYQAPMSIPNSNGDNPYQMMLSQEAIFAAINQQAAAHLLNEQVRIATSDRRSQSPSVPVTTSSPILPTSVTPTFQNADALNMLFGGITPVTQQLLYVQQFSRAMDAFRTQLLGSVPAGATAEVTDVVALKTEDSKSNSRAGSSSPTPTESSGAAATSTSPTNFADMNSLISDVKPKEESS

ZTF-17 [2] = target: T1, ZTF-17; test: competition; cold competitor vs YF4-2; 50 mM KCl, 20 mM HEPES pH 7.9, 0.2 mM EDTA, 0.5 mM DTT, 3 mM MgCl2, 1 ug poly(dI-dC), 0.5 ug/ul BSA, 0-800 ng protein, 20 ul, 20 min on ice (4 C); conditions: protein: recombinant; tags: N-terminal 6His (pQE-80L); blunt
ZTF-17 [3] = target: T1, ZTF-17; test: EMSA; also competes vs YF4-2; 50 mM KCl, 20 mM HEPES pH 7.9, 0.2 mM EDTA, 0.5 mM DTT, 3 mM MgCl2, 1 ug poly(dI-dC), 0.5 ug/ul BSA, 0-800 ng protein, 20 ul, 20 min on ice (4 C); conditions: protein: recombinant; tags: N-terminal 6His (pQE-80L); label: 32P (probe); blunt

B1: YF4-2 (dsDNA)
DNA 1: GAGCAAGAGATGTGCTCTCGGCTCCACGAACCTCTTTGATCTATGCCGACAGTGGGGGAGATTGGAGAAGAAGCATGCTCCACCCTTCACGTGTATCAGTACGTCTGCGTCTTCTTGTGCGTGCCGCCCGGATTAGAAGACATGAAGTGGGAGGGCGATAGAGGAAATTCCGATGGCAATACCAAC
DNA 2: GTTGGTATTGCCATCGGAATTTCCTCTATCGCCCTCCCACTTCATGTCTTCTAATCCGGGCGGCACGCACAAGAAGACGCAGACGTACTGATACACGTGAAGGGTGGAGCATGCTTCTTCTCCAATCTCCCCCACTGTCGGCATAGATCAAAGAGGTTCGTGGAGCCGAGAGCACATCTCTTGCTC
Question: Does B1 bind (ZTF-17 [1])?
Answer: binds

B2: ECR2 (dsDNA)
DNA 1: CCCATATGCTTCCTGCTGTGTGTGGCACGAGCGCCAATAA
DNA 2: TTATTGGCGCTCGTGCCACACACAGCAGGAAGCATATGGG
Question: Does B2 bind (ALR-1)?
Answer: binds

B3: YF4-3 (dsDNA)
DNA 1: GAGCAAGAGATGTGCTCTCGGCTCCACGAACCTCTTTGATCTATGCCGACAGTGGGGGAGATTGGAGAAGAAGCATGCTCCACCCTTCACGTGTATCAGTACG
DNA 2: CGTACTGATACACGTGAAGGGTGGAGCATGCTTCTTCTCCAATCTCCCCCACTGTCGGCATAGATCAAAGAGGTTCGTGGAGCCGAGAGCACATCTCTTGCTC
Question: Does B3 bind (ZTF-17 [2])?
Answer: no binding

B4: YF4-4 (dsDNA)
DNA 1: GCTCCACCCTTCACGTGTATCAGTACGTCTGCGTCTTCTTGTGCGTGCCGCCCGGATTAGAAGACATGAAGTGGGAGGGCGATAGAGGAAATTCCGATGGCAATACCAAC
DNA 2: GTTGGTATTGCCATCGGAATTTCCTCTATCGCCCTCCCACTTCATGTCTTCTAATCCGGGCGGCACGCACAAGAAGACGCAGACGTACTGATACACGTGAAGGGTGGAGC
Question: Does B4 bind (ZTF-17 [3])?
Answer: binds
